Data on two variants can be found in article PMC4396693, “Structural Basis of Latrophilin-FLRT Interaction” (Structure(London, England:1993), 2015).

The chains are these.
B1: murine LPHN3^Lec-Olf, wild type, biotinylated at a C-terminal Avi-Tag [modified: biotin on the C-terminal Avi-Tag (enzymatic); biotin on the C-terminal Avi-Tag (enzymatic)] [murine] / murine FLRT2 full ectodomain, wild … (parent)
chain 1: PIPMAVVRRELSCESYPIELRCPGTDVIMIESANYGRTDDKICDSDPAQMENIRCYLPDAYKIMSQRCNNRTQCAVVAGPDVFPDPCPGTYKYLEVQYECVPYKVEQKVFLCPGLLKGVYQSEHLFESDHQSGAWCKDPLQASDKIYYMPWTPYRTDTLTEYSSKDDFIAGRPTTTYKLPHRVDGTGFVVYDGALFFNKERTRNIVKFDLRTRIKSGEAIIANANYHDTSPYRWGGKSDIDLAVDENGLWVIYATEQNNGKIVISQLNPYTLRIEGTWDTAYDKRSASNAFMICGILYVVKSVYEDDDNEATGNKIDYIYNTDQSKDSLVDVPFPNSYQYIAAVDYNPRDNLLYVWNNYHVVKYSLDFGPLD
chain 2: ACPSVCRCDRNFVYCNERSLTSVPLGIPEGVTVLYLHNNQINNAGFPAELHNVQSVHTVYLYGNQLDEFPMNLPKNVRVLHLQENNIQTISRAALAQLLKLEELHLDDNSISTVGVEDGAFREAISLKLLFLSKNHLSSVPVGLPVDLQELRVDENRIAVISDMAFQNLTSLERLIVDGNLLTNKGIAEGTFSHLTKLKEFSIVRNSLSHPPPDLPGTHLIRLYLQDNQINHIPLTAFANLRKLERLDISNNQLRMLTQGVFDHLSNLKQLTARNNPWFCDCSIKWVTEWLKYIPSSLNVRGFMCQGPEQVRGMAVRELNMNLLSCPTTTPGLPVFTPAPSTVSPTTQSPTLSVPSPSRGSVPPAPTPSKLPTIPDWDGRERVTPPISERIQLSIHFVNDTSIQVSWLSLFTVMAYKLTWVKMGHSLVGGIVQERIVSGEKQHLSLVNLEPRSTYRICLVPLDAFNYRTVEDTICSEATTHASYLNNGSNTASSHEQTTSHSMGSP

Variants of B1 are the subject of the test. In words: SPR. The following applies: with murine FLRT2 full ectodomain; for Kd: biotinylated LPHN3 Lec-Olf immobilized on streptavidin-coated Biacore chips, FLRT2 ectodomain injected as analyte, 1:1 binding model, parent: 18 nM; for response: maximum response at the highest FLRT2 ectodomain concentration plotted (about 2.3 µM), parent: 450, read off a plot. (In general: In SPR one partner is held on a chip, and binding of the other changes the refractive index at the surface.)

One may read the Kd as a measure of binding affinity in units of concentration. Take chain 1 P153N R155T: the Kd turned out to be 980 nM and the response amounted to 460 RU.
The matching figures for chain 1 T176N K178T: 460 nM and 400 RU.
